Results on ten substances are retold here after publication PMC11261597, “Three-Step Enzymatic Remodeling of Chitin into Bioactive Chitooligomers” (Journal of Agricultural and Food Chemistry, 2024).

The kcat is the number of substrate molecules converted per active site and unit of time at saturation. A word on the kcat/Km: it is the second-order rate constant that governs catalysis at low substrate concentration.

TfChit (Talaromyces flavus; D136V/S181W/W209A), sequence (chain, as listed by the source D136V S181W W209A): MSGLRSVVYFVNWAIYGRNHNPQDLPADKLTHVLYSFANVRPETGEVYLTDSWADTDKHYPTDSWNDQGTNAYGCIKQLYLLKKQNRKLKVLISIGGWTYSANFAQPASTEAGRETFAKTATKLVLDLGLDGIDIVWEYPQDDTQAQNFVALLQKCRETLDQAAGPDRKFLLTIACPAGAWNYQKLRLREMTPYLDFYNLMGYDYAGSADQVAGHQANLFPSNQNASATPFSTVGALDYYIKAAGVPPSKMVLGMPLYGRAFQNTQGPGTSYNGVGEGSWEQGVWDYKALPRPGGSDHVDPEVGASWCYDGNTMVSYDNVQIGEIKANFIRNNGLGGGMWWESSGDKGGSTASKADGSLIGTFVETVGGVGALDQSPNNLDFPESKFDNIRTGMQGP
TfChit (Talaromyces flavus; F231W), sequence (chain, as listed by the source F231W): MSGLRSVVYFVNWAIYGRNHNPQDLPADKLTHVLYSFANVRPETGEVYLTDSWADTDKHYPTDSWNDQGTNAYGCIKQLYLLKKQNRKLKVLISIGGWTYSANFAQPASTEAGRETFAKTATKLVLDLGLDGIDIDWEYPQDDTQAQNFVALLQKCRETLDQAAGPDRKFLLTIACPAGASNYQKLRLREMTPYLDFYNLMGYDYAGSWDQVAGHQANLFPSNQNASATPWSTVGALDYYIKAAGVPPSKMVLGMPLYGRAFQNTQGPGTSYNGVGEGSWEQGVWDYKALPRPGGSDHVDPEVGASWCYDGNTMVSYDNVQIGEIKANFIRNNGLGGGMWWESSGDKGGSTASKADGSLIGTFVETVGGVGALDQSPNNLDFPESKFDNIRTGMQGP
TfChit (Talaromyces flavus; D136V/S181W), sequence (chain, as listed by the source D136V S181W): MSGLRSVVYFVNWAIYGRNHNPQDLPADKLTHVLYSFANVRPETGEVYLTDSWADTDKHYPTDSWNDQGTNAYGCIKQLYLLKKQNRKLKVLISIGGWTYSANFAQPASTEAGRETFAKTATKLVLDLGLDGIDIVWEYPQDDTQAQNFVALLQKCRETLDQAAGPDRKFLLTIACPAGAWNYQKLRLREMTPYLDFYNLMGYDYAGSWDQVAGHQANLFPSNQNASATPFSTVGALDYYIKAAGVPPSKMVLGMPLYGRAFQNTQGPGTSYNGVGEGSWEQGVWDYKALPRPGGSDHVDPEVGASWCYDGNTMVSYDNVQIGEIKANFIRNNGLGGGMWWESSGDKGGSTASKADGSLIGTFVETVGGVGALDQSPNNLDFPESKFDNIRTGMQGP
TfChit (Talaromyces flavus), sequence (chain, as listed by the source): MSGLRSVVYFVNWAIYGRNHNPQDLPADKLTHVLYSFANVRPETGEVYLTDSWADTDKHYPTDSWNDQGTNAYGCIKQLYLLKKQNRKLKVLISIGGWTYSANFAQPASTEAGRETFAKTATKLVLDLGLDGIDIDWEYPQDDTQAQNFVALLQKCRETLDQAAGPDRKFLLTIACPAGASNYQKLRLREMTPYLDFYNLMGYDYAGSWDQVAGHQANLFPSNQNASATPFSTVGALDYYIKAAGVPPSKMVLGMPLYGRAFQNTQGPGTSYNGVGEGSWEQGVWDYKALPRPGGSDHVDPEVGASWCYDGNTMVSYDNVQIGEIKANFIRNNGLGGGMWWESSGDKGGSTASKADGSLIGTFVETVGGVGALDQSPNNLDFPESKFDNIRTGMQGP
TfChit (Talaromyces flavus; S181W/W209A), sequence (chain, as listed by the source S181W W209A): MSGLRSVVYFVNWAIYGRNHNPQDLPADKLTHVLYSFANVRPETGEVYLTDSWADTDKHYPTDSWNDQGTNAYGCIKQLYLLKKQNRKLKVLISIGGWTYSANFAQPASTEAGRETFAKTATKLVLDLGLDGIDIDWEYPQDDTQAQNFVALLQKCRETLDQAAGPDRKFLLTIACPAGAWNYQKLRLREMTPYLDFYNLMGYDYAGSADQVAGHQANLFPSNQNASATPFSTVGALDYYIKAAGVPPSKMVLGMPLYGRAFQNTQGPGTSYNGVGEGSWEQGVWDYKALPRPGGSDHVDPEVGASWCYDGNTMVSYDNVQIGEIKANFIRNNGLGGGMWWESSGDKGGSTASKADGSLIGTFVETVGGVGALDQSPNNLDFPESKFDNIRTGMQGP
TfChit (Talaromyces flavus; F231W/W209A), sequence (chain, as listed by the source F231W W209A): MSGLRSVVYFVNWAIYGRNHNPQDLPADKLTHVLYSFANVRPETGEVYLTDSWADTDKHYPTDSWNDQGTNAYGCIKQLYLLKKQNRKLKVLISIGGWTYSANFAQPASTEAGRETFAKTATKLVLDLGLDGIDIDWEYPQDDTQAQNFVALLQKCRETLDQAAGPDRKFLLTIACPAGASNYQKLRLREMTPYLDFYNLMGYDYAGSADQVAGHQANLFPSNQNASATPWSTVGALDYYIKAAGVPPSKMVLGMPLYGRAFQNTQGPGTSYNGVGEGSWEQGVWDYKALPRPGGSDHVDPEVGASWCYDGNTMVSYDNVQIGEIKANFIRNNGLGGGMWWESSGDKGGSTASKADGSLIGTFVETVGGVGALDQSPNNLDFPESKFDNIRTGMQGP
TfChit (Talaromyces flavus; W209A), sequence (chain, as listed by the source W209A): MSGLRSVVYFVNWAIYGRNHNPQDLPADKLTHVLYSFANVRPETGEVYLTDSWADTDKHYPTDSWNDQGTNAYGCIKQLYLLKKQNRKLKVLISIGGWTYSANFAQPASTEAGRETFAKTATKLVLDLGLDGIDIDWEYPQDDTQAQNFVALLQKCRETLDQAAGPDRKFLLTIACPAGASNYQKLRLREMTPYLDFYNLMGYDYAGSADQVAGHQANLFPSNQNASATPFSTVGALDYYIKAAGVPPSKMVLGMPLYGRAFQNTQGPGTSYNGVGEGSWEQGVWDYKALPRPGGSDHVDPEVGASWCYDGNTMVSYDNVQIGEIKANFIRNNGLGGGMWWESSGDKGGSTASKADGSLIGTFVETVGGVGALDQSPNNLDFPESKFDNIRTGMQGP
TfChit (Talaromyces flavus; D136V/W209A), sequence (chain, as listed by the source D136V W209A): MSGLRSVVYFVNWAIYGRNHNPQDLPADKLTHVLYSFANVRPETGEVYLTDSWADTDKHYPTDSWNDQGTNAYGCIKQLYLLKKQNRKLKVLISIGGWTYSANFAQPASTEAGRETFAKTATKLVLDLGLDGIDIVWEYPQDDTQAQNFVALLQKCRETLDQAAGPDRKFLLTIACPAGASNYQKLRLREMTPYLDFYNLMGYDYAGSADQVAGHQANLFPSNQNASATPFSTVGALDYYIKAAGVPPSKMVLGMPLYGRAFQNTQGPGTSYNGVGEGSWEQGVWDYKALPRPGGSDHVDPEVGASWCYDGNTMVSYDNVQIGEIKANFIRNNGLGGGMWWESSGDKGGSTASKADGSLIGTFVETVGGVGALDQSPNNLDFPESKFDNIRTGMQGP
TfChit (Talaromyces flavus; D136V), sequence (chain, as listed by the source D136V): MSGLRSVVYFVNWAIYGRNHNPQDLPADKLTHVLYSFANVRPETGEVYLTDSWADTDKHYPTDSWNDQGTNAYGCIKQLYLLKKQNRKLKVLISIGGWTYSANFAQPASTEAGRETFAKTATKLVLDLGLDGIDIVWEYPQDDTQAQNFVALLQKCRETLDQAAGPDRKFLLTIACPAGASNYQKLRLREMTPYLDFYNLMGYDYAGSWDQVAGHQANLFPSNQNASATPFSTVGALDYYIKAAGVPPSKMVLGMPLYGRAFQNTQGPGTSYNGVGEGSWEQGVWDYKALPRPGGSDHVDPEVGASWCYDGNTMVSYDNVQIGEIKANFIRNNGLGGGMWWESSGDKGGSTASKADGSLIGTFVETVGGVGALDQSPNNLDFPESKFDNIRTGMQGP
TfChit (Talaromyces flavus; S181W), sequence (chain, as listed by the source S181W): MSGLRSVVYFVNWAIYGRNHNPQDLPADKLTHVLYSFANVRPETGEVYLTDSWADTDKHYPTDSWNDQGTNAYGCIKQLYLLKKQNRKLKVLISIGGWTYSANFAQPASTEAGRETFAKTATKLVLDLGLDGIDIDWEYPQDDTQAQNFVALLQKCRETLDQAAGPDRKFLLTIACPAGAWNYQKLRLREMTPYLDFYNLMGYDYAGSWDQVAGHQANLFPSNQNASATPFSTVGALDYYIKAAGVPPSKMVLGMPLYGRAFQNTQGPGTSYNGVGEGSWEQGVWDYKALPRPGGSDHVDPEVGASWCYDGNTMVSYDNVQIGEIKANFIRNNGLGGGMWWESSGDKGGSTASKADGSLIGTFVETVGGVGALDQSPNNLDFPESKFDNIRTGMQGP

The data set has as its system T1, CC(=O)N[C@H]1[C@H](Oc2ccc([N+](=O)[O-])cc2)O[C@H](CO)[C@@H](O[C@@H]2O[C@H](CO)[C@@H](O[C@@H]3O[C@H](CO)[C@@H](O)[C@H](O)[C@H]3NC(C)=O)[C@H](O)[C@H]2NC(C)=O)[C@@H]1O.
T1 construct: synthetic gene, codon-optimised, pPICZαA (EcoRI/KpnI), secreted from Pichia pastoris KM71H, purified by Q-Sepharose
Put plainly: purified protein. As to conditions: 50 mM citrate/phosphate pH 5.0, 25 °C, 0.1–6 mM substrate. In kind it is biochemical, Talaromyces flavus.
Consider TfChit (Talaromyces flavus; F231W), for which the Km is 1.1 mmol·L^–1, the turnover number (kcat) amounted to 1.9 s⁻¹ and the kcat/Km was 1800 M⁻¹ s⁻¹.

Regarding “TfChit (Talaromyces flavus; D136V/S181W)”, the Km is listed as 4.3 mmol·L^–1, the kcat stood at 5.3 s⁻¹ and the kcat/Km worked out at 1200 M⁻¹ s⁻¹.

“TfChit (Talaromyces flavus; D136V/W209A)”: the Km amounted to 3.6 mmol·L^–1, the kcat turned out to be 8.2 s⁻¹ and the kcat/Km is 2200 M⁻¹ s⁻¹.

On to TfChit (Talaromyces flavus; W209A), for which the Km turned out to be 3.3 mmol·L^–1, the kcat worked out at 6.1 s⁻¹ and the kcat/Km stood at 1900 M⁻¹ s⁻¹.

As for TfChit (Talaromyces flavus; D136V), the Km stood at 1.1 mmol·L^–1, the kcat was 5.3 s⁻¹ and the kcat/Km worked out at 5000 M⁻¹ s⁻¹.

For “TfChit (Talaromyces flavus; D136V/S181W/W209A)”, the Km is on record as 2.0 mmol·L^–1, the kcat is 5.6 s⁻¹ and the kcat/Km is 2800 M⁻¹ s⁻¹.

On to “TfChit (Talaromyces flavus; F231W/W209A)”, for which the Km was 1.3 mmol·L^–1, the kcat is 4.7 s⁻¹ and the kcat/Km was determined as 3500 M⁻¹ s⁻¹.

On to TfChit (Talaromyces flavus; S181W), for which the Km is recorded as 1.5 mmol·L^–1, the kcat stood at 6 s⁻¹ and the kcat/Km came to 4000 M⁻¹ s⁻¹.

Turning to TfChit (Talaromyces flavus), the Km came out at 1.2 mmol·L^–1, the kcat was found to be 3.9 s⁻¹ and the kcat/Km is 3300 M⁻¹ s⁻¹.

“TfChit (Talaromyces flavus; S181W/W209A)”: the Km is 2.6 mmol·L^–1, the kcat amounted to 3.1 s⁻¹ and the kcat/Km amounted to 1200 M⁻¹ s⁻¹.
